One block for each molecule: values may come before it.
Key:
[1] = Concentration of neutral fat in blood after bezafibrate in feed; format: in vivo, Zucker fatty rats; details: 0.3% in F2 powder feed for seven days; compared to the control group
Text: (§1) For seven days, the antilipemic bezafibrate (manufactured by Sigma) mixed with F2 powder feed (manufactured by Funabashi Noujou) at 0.3% of concentration was administrated to two Zucker fatty rats (purchased from Nihon Charles River) of age 11 weeks.
(§2) To the two rats in the control group only F2 powder feed was given. After collecting blood samples from each of the rats under both conditions, the liver thereof was extracted, put in liquid nitrogen immediately to be frozen rapidly, and kept at -80 °C. 5 ml of TRIzol reagent (manufactured by Gibco BRL) were added to 0.1 g of the liver tissue obtained, and it was homogenized on ice using an ultra high-speed homogenizer (Polytoron, manufactured by ckinematica) (at dial 10 for 2 minutes). After incubation for 5 minutes at a room temperature, 1 ml of chloroform was added and mixed vigorously for 15 seconds.

[2] = test system: rat "angiopoietin-related protein 3" gene; experiment: TaqMan PCR quantification of liver angiopoietin-related protein 3 gene expression after bezafibrate in feed; format: in vivo, Zucker fatty rats; details: 0.3% in F2 powder feed for seven days, compared to the control group, corrected with 18S ribosome
Text: as §1
as §2, with “seconds. […]” for “seconds.”
A single stranded cDNA was produced according to the following procedures. […] After completion of the reaction, 29 µl of ribonuclease-free purified water was added to each of the samples, and diluted with ribonuclease-free purified water a further 5 times for use in the following quantification. The single-stranded cDNA solution for creation of a calibration-curve was prepared by producing a 5-times serial dilution with ribonuclease-free purified water from the solution for quantification derived from one control sample. […]

[3] = target: lipoprotein lipase (LPL) originated from a rat fat cell (rat) (UniProt Q06000); experiment: cell-based or functional assay
Sequence of UniProt Q06000 (Q06000 28-474 limits assumed): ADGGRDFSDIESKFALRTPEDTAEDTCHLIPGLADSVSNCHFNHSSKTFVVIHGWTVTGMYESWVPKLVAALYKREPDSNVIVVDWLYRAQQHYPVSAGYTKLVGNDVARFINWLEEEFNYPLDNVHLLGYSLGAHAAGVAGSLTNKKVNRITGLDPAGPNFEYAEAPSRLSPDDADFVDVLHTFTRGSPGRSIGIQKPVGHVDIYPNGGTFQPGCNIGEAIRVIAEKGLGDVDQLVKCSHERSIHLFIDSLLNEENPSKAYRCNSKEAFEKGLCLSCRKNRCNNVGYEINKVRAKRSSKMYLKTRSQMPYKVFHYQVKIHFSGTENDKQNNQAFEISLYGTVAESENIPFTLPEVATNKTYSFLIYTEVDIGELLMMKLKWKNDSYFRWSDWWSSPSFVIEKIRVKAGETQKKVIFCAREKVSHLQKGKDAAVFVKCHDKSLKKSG

[4] = target: lipoprotein lipase (LPL) in mouse plasma after administering heparin intravenously (mouse) (UniProt P11152); experiment: cell-based or functional assay
Sequence of UniProt P11152 (P11152 28-474 limits assumed): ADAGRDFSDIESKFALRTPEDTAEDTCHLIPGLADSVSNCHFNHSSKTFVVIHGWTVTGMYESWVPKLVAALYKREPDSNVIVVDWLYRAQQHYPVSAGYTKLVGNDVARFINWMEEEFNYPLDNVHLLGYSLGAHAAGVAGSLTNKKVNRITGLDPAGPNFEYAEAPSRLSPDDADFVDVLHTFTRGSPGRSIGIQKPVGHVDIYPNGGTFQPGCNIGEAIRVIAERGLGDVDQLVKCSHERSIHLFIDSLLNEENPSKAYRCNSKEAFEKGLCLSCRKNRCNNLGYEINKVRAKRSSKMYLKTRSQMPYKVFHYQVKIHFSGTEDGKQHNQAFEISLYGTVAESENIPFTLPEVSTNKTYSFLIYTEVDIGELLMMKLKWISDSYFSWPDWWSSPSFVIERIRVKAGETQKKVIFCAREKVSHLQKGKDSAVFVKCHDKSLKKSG

[5] = target: hepatic triacylglycerol lipase (HTGL) in mouse plasma after administering heparin intravenously (mouse) (UniProt P27656); experiment: cell-based or functional assay
Sequence of UniProt P27656 (P27656 22-510 limits assumed): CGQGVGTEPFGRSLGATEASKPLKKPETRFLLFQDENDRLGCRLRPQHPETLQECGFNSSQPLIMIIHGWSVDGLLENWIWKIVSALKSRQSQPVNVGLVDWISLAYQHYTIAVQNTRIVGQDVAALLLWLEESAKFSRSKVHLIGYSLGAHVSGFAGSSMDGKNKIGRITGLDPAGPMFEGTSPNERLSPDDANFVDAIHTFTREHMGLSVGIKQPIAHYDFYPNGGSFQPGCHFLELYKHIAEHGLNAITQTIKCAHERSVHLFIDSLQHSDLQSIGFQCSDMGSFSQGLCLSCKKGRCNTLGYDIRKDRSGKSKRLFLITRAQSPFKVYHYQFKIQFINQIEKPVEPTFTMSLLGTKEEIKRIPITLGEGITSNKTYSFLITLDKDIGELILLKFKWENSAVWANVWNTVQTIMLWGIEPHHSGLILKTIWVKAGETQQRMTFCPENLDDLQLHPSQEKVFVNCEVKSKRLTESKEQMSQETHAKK

LPL activity (%) at 1 µg/ml GST-ARP4N (GST 10 µg/ml = 100 %) [3]: 74%
LPL activity (%) at 2.5 µg/ml GST-ARP4N (GST 10 µg/ml = 100 %) [3]: 61%
LPL activity (%) at 5 µg/ml GST-ARP4N (GST 10 µg/ml = 100 %) [3]: 34%
LPL activity (%) at 10 µg/ml GST-ARP4N (GST 10 µg/ml = 100 %) [3]: 16%
Molecule: GST-ARP4N (glutathione-S-transferase connected to the amino terminus of amino acid numbers 26-143 of SEQ ID No. 16, angiopoietin related protein 4) (from UniProt P08515 1-218)

relative value of LPL activity (%) at 0 µg/ml polypeptide [4]: 100%
relative value of LPL activity (%) at 1 µg/ml polypeptide [4]: 93%
relative value of LPL activity (%) at 2.5 µg/ml polypeptide [4]: 82%
relative value of LPL activity (%) at 5 µg/ml polypeptide [4]: 70%
relative value of LPL activity (%) at 10 µg/ml polypeptide [4]: 49%
relative value of LPL activity (%) at 0 µg/ml polypeptide [3]: 100%
relative value of LPL activity (%) at 1 µg/ml polypeptide [3]: 84%
relative value of LPL activity (%) at 2.5 µg/ml polypeptide [3]: 64%
relative value of LPL activity (%) at 5 µg/ml polypeptide [3]: 52%
relative value of LPL activity (%) at 10 µg/ml polypeptide [3]: 29%
relative value of HTGL activity (%) at 0 µg/ml polypeptide [5]: 100%
relative value of HTGL activity (%) at 1 µg/ml polypeptide [5]: 109%
relative value of HTGL activity (%) at 2.5 µg/ml polypeptide [5]: 94%
relative value of HTGL activity (%) at 5 µg/ml polypeptide [5]: 80%
relative value of HTGL activity (%) at 10 µg/ml polypeptide [5]: 64%
Molecule: human angiopoietin-related protein 3 (polypeptide consisting of amino acid numbers 17-460 of SEQ ID No. 4) (ligand)

The next lines start with the molecule.

Molecule: CC(C)(Oc1ccc(CCNC(=O)c2ccc(Cl)cc2)cc1)C(=O)O [bezafibrate]
concentration of neutral fat in blood reduced [1]: 50%
level of expression of a rat "angiopoietin-related protein 3" gene decreased [2]: 73%

Molecule: GST-ARP4Full (glutathione-S-transferase connected to the amino terminus of amino acid numbers 26-406 of SEQ ID No. 16, angiopoietin related protein 4) (from UniProt P08515 1-218)
relative value of LPL activity (%) at 1 µg/ml GST-ARP4Full (GST 10 µg/ml = 100 %) [3]: 67%
relative value of LPL activity (%) at 2.5 µg/ml GST-ARP4Full (GST 10 µg/ml = 100 %) [3]: 30%
relative value of LPL activity (%) at 5 µg/ml GST-ARP4Full (GST 10 µg/ml = 100 %) [3]: 16%
relative value of LPL activity (%) at 10 µg/ml GST-ARP4Full (GST 10 µg/ml = 100 %) [3]: 5%

Molecule: KhAP5 CC/His (N terminal 207 amino acid partial protein of angiopoietin-related protein 3 with a histidine tag inserted after residue 20) (ligand)
relative value of LPL activity (%) at 0 µg/ml KhAP5 CC/His [3]: 100%
relative value of LPL activity (%) at 1 µg/ml KhAP5 CC/His [3]: 27%
relative value of LPL activity (%) at 2.5 µg/ml KhAP5 CC/His [3]: 21%
relative value of LPL activity (%) at 5 µg/ml KhAP5 CC/His [3]: 14%
relative value of LPL activity (%) at 10 µg/ml KhAP5 CC/His [3]: 11%
